Reference: PMC4939875 (Nature, 2016)

B1: WT: human TONSL Ankyrin Repeat Domain (residues 512–692), wild type (protein)
chain: GHLGRRKGSKWNRRNDMGETLLHRACIEGQLRRVQDLVRQGHPLNPRDYCGWTPLHEACNYGHLEIVRFLLDHGAAVDDPGGQGCEGITPLHDALNCGHFEVAELLLERGASVTLRTRKGLSPLETLQQWVKLYRRDLDLETRQKARAMEMLLQAAASGQDPHSSQAFHTPSSLLFDPETS
modifications: left off: GST, end not stated, cleaved
B2: TONSL WT: siRNA resistant GFP-TONSL, wild type, inducible in U-2-OS (protein)
chain: MSLERELRQLSKAKAKAQRAGQRREEAALCHQLGELLAGHGRYAEALEQHWQELQLRERADDPLGCAVAHRKIGERLAEMEDYPAALQHQHQYLELAHSLRNHTELQRAWATIGRTHLDIYDHCQSRDALLQAQAAFEKSLAIVDEELEGTLAQGELNEMRTRLYLNLGLTFESLQQTALCNDYFRKSIFLAEQNHLYEDLFRARYNLGTIHWRAGQHSQAMRCLEGARECAHTMRKRFMESECCVVIAQVLQDLGDFLAAKRALKKAYRLGSQKPVQRAAICQNLQHVLAVVRLQQQLEEAEGRDPQGAMVICEQLGDLFSKAGDFPRAAEAYQKQLRFAELLDRPGAERAIIHVSLATTLGDMKDHHGAVRHYEEELRLRSGNVLEEAKTWLNIALSREEAGDAYELLAPCFQKALSCAQQAQRPQLQRQVLQHLHTVQLRLQPQEAPETETRLRELSVAEDEDEEEEAEEAAATAESEALEAGEVELSEGEDDTDGLTPQLEEDEELQGHLGRRKGSKWNRRNDMGETLLHRACIEGQLRRVQDLVRQGHPLNPRDYCGWTPLHEACNYGHLEIVRFLLDHGAAVDDPGGQGCEGITPLHDALNCGHFEVAELLLERGASVTLRTRKGLSPLETLQQWVKLYRRDLDLETRQKARAMEMLLQAAASGQDPHSSQAFHTPSSLLFDPETSPPLSPCPEPPSNSTRLPEASQAHVRVSPGQAAPAMARPRRSRHGPASSSSSSEGEDSAGPARPSQKRPRCSATAQRVAAWTPGPASNREAATASTSRAAYQAAIRGVGSAQSRLGPGPPRGHSKALAPQAALIPEEECLAGDWLELDMPLTRSRRPRPRGTGDNRRPSSTSGSDSEESRPRARAKQVRLTCMQSCSAPVNAGPSSLASEPPGSPSTPRVSEPSGDSSAAGQPLGPAPPPPIRVRVQVQDHLFLIPVPHSSDTHSVAWLAEQAAQRYYQTCGLLPRLTLRKEGALLAPQDLIPDVLQSNDEVLAEVTSWDLPPLTDRYRRACQSLGQGEHQQVLQAVELQGLGLSFSACSLALDQAQLTPLLRALKLHTALRELRLAGNRLGDKCVAELVAALGTMPSLALLDLSSNHLGPEGLRQLAMGLPGQATLQSLEELDLSMNPLGDGCGQSLASLLHACPLLSTLRLQACGFGPSFFLSHQTALGSAFQDAEHLKTLSLSYNALGAPALARTLQSLPAGTLLHLELSSVAAGKGDSDLMEPVFRYLAKEGCALAHLTLSANHLGDKAVRDLCRCLSLCPSLISLDLSANPEISCASLEELLSTLQKRPQGLSFLGLSGCAVQGPLGLGLWDKIAAQLRELQLCSRRLCAEDRDALRQLQPSRPGPGECTLDHGSKLFFRRL
modifications: left off: GFP, end not stated, kept
B3: Full length TONSL: in vitro-translated full length TONSL (protein)
chain: B2 chain
modifications: 35S-methionine

Columns and labels:
histones H3–H4 = experiment: Pull-down with recombinant histones H3–H4; type: binding; settings: GST-ARD with H3–H4 tetramers, 20 mM Tris pH 7.5, 0.5 M NaCl, 23 °C, 1 h; IVT full length TONSL with H3.1–H4 beads, 2 h
U-2-OS cells = experiment: Clonogenic assay upon GFP-TONSL induction; type: cell-based; settings: siTONSL; presence and absence of CPT 50 nM 24 h; 12-15 days; +tet

Molecule	direct binding to histones H3–H4 in vitro (histones H3–H4)	viability of TONSL depleted cells (colony formation) (U-2-OS cells)
B1	bound directly to histones H3–H4	–
B2	–	partially rescued viability
B3	bound directly to histones H3–H4	–
